Source: patent US8821943B2, “Methods and compositions for targeted delivery of therapeutic agents” (Board of Regents of the University of Nebraska, priority 2006, dated 2014)

Tested on: ARPE-19 cells
Assay: Nanoparticle uptake by human retinal pigment epithelial cells
Format: cell-based
Details: 1 ml of 100 μg/ml suspension in serum free medium
Description: A study was performed to examine the effect of targeting moieties on biodegradable and non-biodegradable carrier particles and their uptake in ocular cells. The biodegradable and non-biodegradable targeted carrier particles of the preceding Example were used. Uptake of nanoparticles by human retinal pigment epithelial cells (ARPE-19 cell line) was quantified by measuring fluorescence in cell lysate obtained after incubation of targeted or untargeted (unconjugated) nanoparticles with ARPE-19 cell monolayers.
ARPE-19 cells were obtained from American Type Culture Collection (ATCC, Manassas, Va.). The cells were maintained in culture according to supplier's recommendation. All studies were conducted using confluent cells of passages 20-30. Dulbecco's modified Eagle's medium (DMEM-F/12), fetal bovine serum, penicillin-streptomycin and L-glutamine were obtained from Gibco-BRL (Invitrogen Inc., Carlsbad, Calif.). Cell culture flasks (T-75 cm^2) and plates were purchased from Corning Inc., (Corning, N.Y.). To investigate the uptake of particles, ARPE-19 cells between 20-30 passages were cultured in 24-well plates until confluency. […] Fluorescence intensity of the cell lysates was determined at an excitation and emission wavelength of 505 and 515 nm, respectively, for FluoSpheres®. […]

Transferrin-AS: transferrin-aldehyde sulphate-conjugated polystyrene nanoparticles
percentage uptake at 3 h by ARPE-19 cells: 12.2±0.26%
